Test results: paper PMC6138639 (2018)
Where a chain is given by its changes, count along the chain named. Where no end group is shown, it is not given here. Me3 = N6,N6,N6-trimethyl (lysine)

B1: ZZZ3 ZZ domain (aa 800–903), GST cleaved (domain or fragment)
chain: KLKKQKLQQMQAESGFVQHVGFKCDNCGIEPIQGVRWHCQDCPPEMSLDFCDSCSDCLHETDIHKEDHQLEPIYRSETFLDRDYCVSQGTSYNYLDPNYFPANR

What was measured:
[1] = biological target: T1, 15N-labeled ZZZ3-ZZ F821A used in NMR titrations (human); assay: NMR
T1 chain: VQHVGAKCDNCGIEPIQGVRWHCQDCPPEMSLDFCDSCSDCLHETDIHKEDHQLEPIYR

[2] = biological target: T2, 15N-labeled WT ZZZ3-ZZ used in NMR titrations (human); assay: NMR
T2 chain: T1 chain with A6F

H3K4me3 (1-12) peptide = biological target: T3, H3K4me3 (1-12) peptide (Homo sapiens); assay: tryptophan fluorescence
T3 chain: H-ARTK(Me3)QTARKSTG

Row | Binder | Kd [1] [µM] | Kd [2] [µM] | Kd (H3K4me3 (1-12) peptide) [µM]
1 | ARTKQTARKSTG [unmodified H3 peptide of the tryptophan fluorescence and NMR titration experiments] | 400 | 42 | 
2 | B1 |  |  | 22
3 | ARTK(Ac)QTAR [H3K4ac peptide of the tryptophan fluorescence and NMR titration experiments] | 480 | 14 | 
